T1: human DLL3 antigen (human, UniProt Q9NYJ7 27-492, limits assumed)
T1 construct: also called immobilized human DLL3; recombinant human DLL3
T1 sequence (looked up): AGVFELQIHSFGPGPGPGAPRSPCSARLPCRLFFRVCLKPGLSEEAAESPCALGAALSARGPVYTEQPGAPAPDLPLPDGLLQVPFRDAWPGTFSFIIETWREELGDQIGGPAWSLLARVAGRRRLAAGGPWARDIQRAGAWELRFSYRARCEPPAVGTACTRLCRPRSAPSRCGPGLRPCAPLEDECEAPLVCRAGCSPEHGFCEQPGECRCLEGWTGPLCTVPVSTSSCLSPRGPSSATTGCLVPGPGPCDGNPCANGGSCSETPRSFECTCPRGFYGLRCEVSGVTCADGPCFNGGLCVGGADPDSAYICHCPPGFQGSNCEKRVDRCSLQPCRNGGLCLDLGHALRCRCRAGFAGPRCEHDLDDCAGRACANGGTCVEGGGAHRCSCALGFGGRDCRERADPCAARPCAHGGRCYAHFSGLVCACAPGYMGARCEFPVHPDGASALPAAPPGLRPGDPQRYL

B1: SC16.111 (antibody, V domains shown)
VH: EVQLQQSGPELEKPGASVKISCKASGYSFTGYNMNWVKQSNGKSLEWIGNIDPYYGGSSYKQKFEGKATLTVDKSSSTAYMQLKSLTSEDSAVYYCARGGSNFFDYWGQGTTLTVSS
VL: DIQMTQSPASLAASVGETVTITCRASENIYYSLAWYQQKQGKSPQLLIYNANSLEDGVPSRFSGSGSGTQYSMKINSMQPEDTATYFCKQTYDVPLTFGAGTKLELK
notes: murine mAb
B2: SC16.104 (antibody, V domains shown)
VH: QVQLKESGPDLVQPSQTLSLTCTVSGFSLTFYGVHWVRQPPGKGLEWVGTMGWDDKKYYNSALKSRLSISRDTSKNQVFLKLSSLQTEDTAMYYCTRGGTGFDYWGQGTTLTVSS
VL: QIVLSQSPAILSASPGEKVTMTCRASSSVSYIHWYRQKPGSSPKPWIYATSNLASGVPARFSGSGSGTSYSLTISRVEAEDAATYYCQQWSSNPPTFGAGTKLELK
notes: murine mAb
B3: SC16.110 (antibody, V domains shown)
VH: EVQLQQSGPGLVRTGASVKISCKASGYSFTGYYMHWVKQSHGKSLEWIGYISCYNGATTYNQNFKGKATFIVDTSSSTAYMQFNSLTSEDSAVYYCARSDGGHAMDYWGQGTSVTVSS
VL: NIVMTQTPKFLLVSAGDRVTITCKASQSVSNDVAWYQQKPGQSPKLLIYYASNRYTGVPDRFTGSGYGTDFTFTISTVQAEDLAVYFCQQDYSSPPTFGGGTKLEIK
notes: murine mAb
B4: SC16.109 (antibody, V domains shown)
VL: QIVLTQSPAIMSASPGEKVTMTCSASSSVSYMYWYQQKPGSSPRLLIYDTSNLASGVPVRFSGSGSGTSFSLTISRMEAEDTATYYCQEWSGNPLTFGDGTKLELK
V domain: QIQLVQSGPELKKPGETVKISCKASGYTFTNYGMNWVKQAPGKGLKWMGWINTYTGEPAYADDFKGRFAFSLETSASAAYLQINNLKNEDTATFFCANMRPTRGFAYWGQGTLGTVSA
notes: murine mAb
B5: SC16.8 (antibody, V domains shown)
VH: QAQLQQSGAELVRPGTSVKVSCKASGYAFTNYLIEWVKQRPGQGLEWIGVINPGTGGTNYNENFKGKATLTADKSSSTAYMQLSSLTSDDSAVYFCARSPYDYHEGAMDYWGQGTSVTVSS
VL: EIQMTQSPSSMSASLGDRITITCQATQDIVKNLNWYQQKPGKPPSFLIYYAIELAEGVPSRFSGSGSGSDYSLTISNLESEDFADYYCLQFYEFPFTFGAGTKLELK
notes: murine mAb
B6: SC16.107 (antibody, V domains shown)
VH: EVQLQQSGPELVKPGASVKMSCKASGYTFTNYVMHWVKQKPGQGLEWIGYINPYNDGTKYNEKFKGKATLTSDKSSTTAYMALSSLTSEDSAVYYCAVAYYSNWGFAYWGQGTLVTVSA
VL: DIVMTQSHKFMSTSVGDRVSITCKASQDVNTAVGWYQQKPGQSPKLLIYSASYRYTGVPDRFTGSGSGTDFTFTISSVQAEDLAVYYCQQHYSSPYTFGGGTKLEIKR
notes: murine mAb
B7: SC16.106 (antibody, V domains shown)
VH: QVQLKQSGPGLVAPSQSLFITCTVSGFSLTSYEINWVRQPPGKGLEWLGVIWTGGSTNYNSALISRLSISKDNSKSLVFLKMNSLQTDDTAIYYCVRGVYAMDYWGQGTSVTVSS
VL: DIKMTQSPSSMYASLGERVTITCKASQDINSYLSWFQQKPGKSPKTLIYRANRLVDGVPSRFSGSGSGQDYSLTISSLEYEDMGIYYCLQYDEFPFTFGSGTKLEIK
notes: murine mAb
B8: SC16.101 (antibody, V domains shown)
VL: QIVLTQSPAIMSASLGERVTMTCTASSSVSSSYLHWYQQKPGSSPKLWIYSTSNLASGVPARFSGSESGTSYSLTISNMEAEDAATYYCHQYHRSPFTFGSGTKLEIK
V domain: QVTLKESGPGILQPSQTLSLTCSFSGFSLSTSGMGVGWIRQPSGKGLEWLAHIWWDDVKRYNPALKSRLTISKDASSSQVFLKIASVDTAETATYYCAHILDRAYYFDYWGQGTTLTVTS
notes: murine mAb

What follows are binders tested against T1, human DLL3 antigen (assay: ELISA or flow cytometry screen).

Binding result, binds:
B1, B2, B3, B4, B5, B6, B7, B8
